Laboratory results taken from the RNAGym collection of RNA variant scans (doi:10.7554/elife.80360).

B1: Hairpin Ribozyme (parent)
chain: GUCCUCUUUCACGUGCGCGUGAAAGAGAGAAGUGAACCAGAGAAACACACGUUGUGGUAUAUUACCUGGUA

Variants of: B1
Test: self-cleavage, relative activity (ratio to wild type); higher = more cleavage; co-transcriptional

Going from GUCCUCUCUCACGUGCGCGUGAAAGAGAGAAGUGAACCAGAGAAACACACGUUGUGGUAUGUUACCUGGUA to GUCCUCUCUCACGUGCGCGUGAAAGAGAGAAGUGAACCAGAGAAACACACGUUGUGGUAUAUUCCCUGGUA, the self-cleavage falls from 0.0942 to 0.043.

Going from GUCCUCUCUUACGUGCGCGUGAAAGAGAGAAGUGAACCAGAGAAACACACGUUGUGGUAUAUUACCUGGUA to GUCCUCUCUCACGUGAGCGUGAAAGAGAGAAGUGAACCAGAGAAACACACGUUGUGGUAUAUUACCUGGUA, the self-cleavage rises from 0.564 to 0.84.

Going from GUCCUCUCUCACGUGGGCGUGAAAGAGAGAAGUGAACCAGAGAAACACACGUUGUGGUAUAUUACCUGGUA to GUCCUCUCUCACGUGUGCGUGAAAGAGAGAAGUGAACCAGAGAAACACACGUUGUGGUAUAUUACCUGGUA, the self-cleavage rises from 0.651 to 0.734.

Compared with GUCCUCUCUCACGUGCGGGUGAAAGAGAGAAGUGAACCAGAGAAACACACGUUGUGGUAUAUUACCUGGUA, GUCCUCUCUCACGUGCGCGUGAAAGAGAGAAGUGAAGCAGAGAAACACACGUUGUGGUAUAUUACCUGGUA is lower in self-cleavage: 0.528 for the first, 0.214 for the second.

First: GUCCUCUCUCACGUGCGCGUGAAAGAGAGAAGUGAACCAGAGAAAUACACGUUGUGGUAUAUUACCUGGUA
Second: GUCCUCUCUCACGUGCGCGUGAAAGAGAGAAGUGAACCAGAGAAACAAACGUUGUGGUAUAUUACCUGGUA
The self-cleavage of the first is higher: 0.172 for the first, 0.136 for the second.

Compared with GUCCUCUCUCACGUGCGCGUGAAAGAGAGAAGUGAACCAGAGAAACACAUGUUGUGGUAUAUUACCUGGUA, GUCCUCUCUCACGUGCGCGUGAAAGAGAGAAGUGAACCAGAGAAACACACGUUGUGGUAUAUUAGCUGGUA is lower in self-cleavage: 0.172 for the first, 0.143 for the second.

Going from GUCCUCUCUCACGUGCGCGUGAAAGAGAGAAGUGAACCAGAGAAACACACGUUGUGGUAUAUUACAUGGUA to GUCCUCUCUCACGUGCGCGUGAAAGAGAGAAGUGAACCAGAGAAACACACGUUGUGGUAUAUUACUUGGUA, the self-cleavage rises from 0.19 to 0.273.

Going from GUCCUCUCUCACGUCCGCGUGAAAGAGAGAAGUGAACCAGAGAAACACACGUUGUGGUAUAUUACCUGGUA to GUCCUCUCUCACGUUCGCGUGAAAGAGAGAAGUGAACCAGAGAAACACACGUUGUGGUAUAUUACCUGGUA, the self-cleavage rises from 0.565 to 0.932.

First: GUCCUCUCUCACGUGCACGUGAAAGAGAGAAGUGAACCAGAGAAACACACGUUGUGGUAUAUUACCUGGUA
Second: GUCCUCUCUCACGUGCGCCUGAAAGAGAGAAGUGAACCAGAGAAACACACGUUGUGGUAUAUUACCUGGUA
The self-cleavage of the first is higher: 0.632 for the first, 0.232 for the second.

Compared with GUCCUCUCUCACGUGCGCGUUAAAGAGAGAAGUGAACCAGAGAAACACACGUUGUGGUAUAUUACCUGGUA, GUCCUCUCUCACGUGCGCGUGAAAAAGAGAAGUGAACCAGAGAAACACACGUUGUGGUAUAUUACCUGGUA is higher in self-cleavage: 0.142 for the first, 0.197 for the second.

First: GUCCUCUCUCACGUGCGCGUGAAACAGAGAAGUGAACCAGAGAAACACACGUUGUGGUAUAUUACCUGGUA
Second: GUCCUCUCUCACGUGCGCGUGAAAGAAAGAAGUGAACCAGAGAAACACACGUUGUGGUAUAUUACCUGGUA
The self-cleavage of the first is lower: 0.148 for the first, 0.443 for the second.

First: GUCCUCUCUCACGUGCGCGUGAAAGACAGAAGUGAACCAGAGAAACACACGUUGUGGUAUAUUACCUGGUA
Second: GUCCUCUCUCACGUGCGCGUGAAAGAGACAAGUGAACCAGAGAAACACACGUUGUGGUAUAUUACCUGGUA
The self-cleavage of the first is higher: 0.152 for the first, 0.0996 for the second.

First: GUCCUCUCUCACGUGCGCGUGAAAGAGAGAAAUGAACCAGAGAAACACACGUUGUGGUAUAUUACCUGGUA
Second: GUCCUCUCUCACGUGCGCGUGAAAGAGAGAAGUUAACCAGAGAAACACACGUUGUGGUAUAUUACCUGGUA
The self-cleavage of the first is lower: 0.198 for the first, 1.32 for the second.

Going from GUCCUCUCUCACGUGCGCGUGAAAGAGAGAAGUGAACCAAAGAAACACACGUUGUGGUAUAUUACCUGGUA to GUCCUCUCUCACGUGCGCGUGAAAGAGAGAAGUGAACCAGAUAAACACACGUUGUGGUAUAUUACCUGGUA, the self-cleavage falls from 0.274 to 0.252.

Going from GUCCUCUCUCACGUGCGCGUGAAAGAGAGAAGUGAACCAGAGAAACACACAUUGUGGUAUAUUACCUGGUA to GUCCUCUCUCACGUGCGCGUGAAAGAGAGAAGUGAACCAGAGAAACACACCUUGUGGUAUAUUACCUGGUA, the self-cleavage falls from 0.855 to 0.701.

First: GUCCUCUCUCACGUGCGCGUGAAAGAGAGAAGUGAACCAGAGAAACACACUUUGUGGUAUAUUACCUGGUA
Second: GUCCUCUCUCACGUGCGCGUGAAAGAGAGAAGUGAACCAGAGAAACACACGUUCUGGUAUAUUACCUGGUA
The self-cleavage of the first is higher: 0.901 for the first, 0.346 for the second.

Compared with GUCCUCUCUCACGUGCGCGUGAAAGAGAGAAGUGAACCAGAGAAACACACGUUGUCGUAUAUUACCUGGUA, GUCCUCUCUCACGUGCGCGUGAAAGAGAGAAGUGAACCAGAGAAACACACGUUGUGUUAUAUUACCUGGUA is higher in self-cleavage: 0.12 for the first, 0.368 for the second.

Going from GUCCUCUCGCACGUGCGCGUGAAAGAGAGAAGUGAACCAGAGAAACACACGUUGUGGUAUAUUACCUGGUA to GUCCUCUCUCACGGGCGCGUGAAAGAGAGAAGUGAACCAGAGAAACACACGUUGUGGUAUAUUACCUGGUA, the self-cleavage rises from 0.374 to 0.501.

Going from GUCCUCUCUCACGUGCGCGAGAAAGAGAGAAGUGAACCAGAGAAACACACGUUGUGGUAUAUUACCUGGUA to GUCCUCUCUCACGUGCGCGGGAAAGAGAGAAGUGAACCAGAGAAACACACGUUGUGGUAUAUUACCUGGUA, the self-cleavage falls from 0.604 to 0.439.

Going from GUCCUCUCUCACGUGCGCGUGAAAGAGAGAAGCGAACCAGAGAAACACACGUUGUGGUAUAUUACCUGGUA to GUCCUCUCUCACGUGCGCGUGAAAGAGAGAAGGGAACCAGAGAAACACACGUUGUGGUAUAUUACCUGGUA, the self-cleavage rises from 0.214 to 0.36.

First: GUCCUCUCUCACGUGCGCGUGAAAGAGAGAAGUGAACCAGAGAAACACACGUUGGGGUAUAUUACCUGGUA
Second: GUCCUCUCUCACGUGCGCGUGAAAGAGAGAAGUGAACCAGAGAAACACACGUUGUGGAAUAUUACCUGGUA
The self-cleavage of the first is lower: 0.101 for the first, 0.552 for the second.

First: GUCCUCUCUCACGUGCGCGUGAAAGAGAGAAGUGAACCAGAGAAACACACGUUGUGGCAUAUUACCUGGUA
Second: GUCCUCUCUCACGUGCGCGUGAAAGAGAGAAGUGAACCAGAGAAACACACGUUGUGGUAUAUGACCUGGUA
The self-cleavage of the first is higher: 0.911 for the first, 0.188 for the second.

Going from GUCCUCUCUCACGUGCGCGUGAAAGAGAGAAGUGAACCAGAGAAACACACGUUGUGGUAUAUUACCUGGGA to GUCCUCUGUCACGUGCGCGUGAAAGAGAGAAGUGAACCAGAGAAACACACGUUGUGGUAUAUUACCUGGUA, the self-cleavage rises from 0.35 to 0.764.

Compared with GUCCUCUGUCGCGUGCGCGUGAAAGAGAGAAGUGAACCAGAGAAACACACGUUGUGGUAUAUUACCUGGUA, GUCCUCUGUCACGUGCGCGUGUAAGAGAGAAGUGAACCAGAGAAACACACGUUGUGGUAUAUUACCUGGUA is lower in self-cleavage: 0.704 for the first, 0.582 for the second.

Going from GUCCUCUGUCACGUGCGCGUGAGAGAGAGAAGUGAACCAGAGAAACACACGUUGUGGUAUAUUACCUGGUA to GUCCUCUGUCACGUGCGCGUGAACGAGAGAAGUGAACCAGAGAAACACACGUUGUGGUAUAUUACCUGGUA, the self-cleavage falls from 0.759 to 0.592.

Going from GUCCUCUGUCACGUGCGCGUGAAUGAGAGAAGUGAACCAGAGAAACACACGUUGUGGUAUAUUACCUGGUA to GUCCUCUGUCACGUGCGCGUGAAAGGGAGAAGUGAACCAGAGAAACACACGUUGUGGUAUAUUACCUGGUA, the self-cleavage rises from 0.595 to 0.673.

Compared with GUCCUCUGUCACGUGCGCGUGAAAGAGCGAAGUGAACCAGAGAAACACACGUUGUGGUAUAUUACCUGGUA, GUCCUCUGUCACGUGCGCGUGAAAGAGUGAAGUGAACCAGAGAAACACACGUUGUGGUAUAUUACCUGGUA is higher in self-cleavage: 0.433 for the first, 0.514 for the second.

Compared with GUCCUCUGUCACGUGCGCGUGAAAGAGAGCAGUGAACCAGAGAAACACACGUUGUGGUAUAUUACCUGGUA, GUCCUCUGUCACGUGCGCGUGAAAGAGAGGAGUGAACCAGAGAAACACACGUUGUGGUAUAUUACCUGGUA is lower in self-cleavage: 0.141 for the first, 0.119 for the second.

First: GUCCUCUGUCACGUGCGCGUGAAAGAGAGAAGUGCACCAGAGAAACACACGUUGUGGUAUAUUACCUGGUA
Second: GUCCUCUGUCACGUGCGCGUGAAAGAGAGAAGUGAUCCAGAGAAACACACGUUGUGGUAUAUUACCUGGUA
The self-cleavage of the first is higher: 0.715 for the first, 0.557 for the second.

First: GUCCUCUGUCACGUGCGCGUGAAAGAGAGAAGUGAACCGGAGAAACACACGUUGUGGUAUAUUACCUGGUA
Second: GUCCUCUGUCACGUGCGCGUGAAAGAGAGAAGUGAACCAGAGCAACACACGUUGUGGUAUAUUACCUGGUA
The self-cleavage of the first is higher: 0.263 for the first, 0.152 for the second.

Compared with GUCCUCUGUCACGUGCGCGUGAAAGAGAGAAGUGAACCAGAGUAACACACGUUGUGGUAUAUUACCUGGUA, GUCCUCUGUCACGUGCGCGUGAAAGAGAGAAGUGAACCAGAGAACCACACGUUGUGGUAUAUUACCUGGUA is lower in self-cleavage: 0.228 for the first, 0.111 for the second.

First: GUCCUCUGUCACGUGCGCGUGAAAGAGAGAAGUGAACCAGAGAAACCCACGUUGUGGUAUAUUACCUGGUA
Second: GUCCUCUGUCACGUGCGCGUGAAAGAGAGAAGUGAACCAGAGAAACACACGUUGUGGUAUCUUACCUGGUA
The self-cleavage of the first is higher: 0.266 for the first, 0.189 for the second.

Compared with GUCCUCUGUCACGUGCGCGUGAAAGAGAGAAGUGAACCAGAGAAACACACGUUGUGGUAUUUUACCUGGUA, GUCCUCUGUCACGUGCGCGUGAAAGAGAGAAGUGAACCAGAGAAACACACGUUGUGGUAUAUUGCCUGGUA is higher in self-cleavage: 0.184 for the first, 0.476 for the second.

Compared with GUCCUCUGUCACGUGCGCGUGAAAGAGAGAAGUGAACCAGAGAAACACACGUUGUGGUAUAUUACCUGGUC, GUCCUCUGUCAAGUGCGCGUGAAAGAGAGAAGUGAACCAGAGAAACACACGUUGUGGUAUAUUACCUGGUA is lower in self-cleavage: 1.34 for the first, 0.395 for the second.

Going from GUCCUCUGUCAUGUGCGCGUGAAAGAGAGAAGUGAACCAGAGAAACACACGUUGUGGUAUAUUACCUGGUA to GUCCUCUGUCACGUGCGGGUGAAAGAGAGAAGUGAACCAGAGAAACACACGUUGUGGUAUAUUACCUGGUA, the self-cleavage rises from 0.447 to 0.518.

Compared with GUCCUCUGUCACGUGCGCGUGAAAGAGAGAAGUGAAGCAGAGAAACACACGUUGUGGUAUAUUACCUGGUA, GUCCUCUGUCACGUGCGCGUGAAAGAGAGAAGUGAAUCAGAGAAACACACGUUGUGGUAUAUUACCUGGUA is higher in self-cleavage: 0.191 for the first, 0.487 for the second.

First: GUCCUCUGUCACGUGCGCGUGAAAGAGAGAAGUGAACGAGAGAAACACACGUUGUGGUAUAUUACCUGGUA
Second: GUCCUCUGUCACGUGCGCGUGAAAGAGAGAAGUGAACCAGAGAAACAAACGUUGUGGUAUAUUACCUGGUA
The self-cleavage of the first is higher: 0.268 for the first, 0.146 for the second.

First: GUCCUCUGUCACGUGCGCGUGAAAGAGAGAAGUGAACCAGAGAAACAGACGUUGUGGUAUAUUACCUGGUA
Second: GUCCUCUGUCACGUGCGCGUGAAAGAGAGAAGUGAACCAGAGAAACAUACGUUGUGGUAUAUUACCUGGUA
The self-cleavage of the first is higher: 0.138 for the first, 0.0825 for the second.
